Usually stoichiometry N stands for the number of molecules, sites or subunits per partner or assembly.

One data set addresses HcRed. Put plainly: SEC; Superdex S200 10/30, 100 µl of 1 mg/ml applied, 20 mM Tris-HCl pH 8.0, 300 mM NaCl, column calibrated with molecular weight standards; self-association. (In gel filtration, larger molecules generally elute earlier.)
Data set [1] addresses Rtms5^S125R/F162P (Montipora efflorescens). Put plainly: AUC; sedimentation velocity, 20°C, 300 mM NaCl, 20 mM Tris pH 8.0, samples at 0.1 mg/ml and 1.0 mg/ml, 40,000 rpm; self-association.
For data set [2] the target is unchanged. Put plainly: SEC; gel filtration, data not shown; self-association.
The target of data set [3] is Rtms5^F162R (Montipora efflorescens). Put plainly: SEC; Superdex S200 10/30, 100 µl of 1 mg/ml applied, 20 mM Tris-HCl pH 8.0, 300 mM NaCl, column calibrated with molecular weight standards; self-association.
Data set [4] has as its target Rtms5^S125R (Montipora efflorescens). The description is as above.
Data set [5] concerns the molecule itself. In words: AUC; sedimentation velocity, 20°C, 300 mM NaCl, 20 mM Tris pH 8.0, samples at 0.1 mg/ml and 1.0 mg/ml, 40,000 rpm; self-association.

With HcRed, in the data set with HcRed, the stoichiometry N is 2.

Rtms5^S125R/F162P (natural protein): the stoichiometry N in data set [1] and in data set [2] was 2 in each case. Take Rtms5^F162R (natural protein): the stoichiometry N in data set [3] was determined as 2. For Rtms5^S125R (natural protein), in data set [4], the stoichiometry N was found to be 2.

B1: Rtms5 (natural protein)
chain: MSVIATQMTYKVYMSGTVNGHYFEVEGDGKGRPYEGEQTVKLTVTKGGPLPFAWDILSPQCQYGSIPFTKYPEDIPDYVKQSFPEGFTWERIMNFEDGAVCTVSNDSSIQGNCFTYHVKFSGLNFPPNGPVMQKKTQGWEPHSERLFARGGMLIGNNFMALKLEGGGHYLCEFKTTYKAKKPVKMPGYHYVDRKLDVTNHNKDYTSVEQCEISIARKPVVA
notes: Cloned in pQE9N; also called wildtype Rtms5; source: E. coli BL21-DE3 (pQE9N:Rtms5), purified (Ni-NTA)
Regarding B1, the “stoichiometry N” value in data set [5] is 4.

The values above are taken from publication PMC3397996, “Ultramarine, a Chromoprotein Acceptor for Förster Resonance Energy Transfer” (PLoS ONE, 2012).
